Measurements: US20130058911

Target: metmyoglobin
Sequence (P68082 2-154): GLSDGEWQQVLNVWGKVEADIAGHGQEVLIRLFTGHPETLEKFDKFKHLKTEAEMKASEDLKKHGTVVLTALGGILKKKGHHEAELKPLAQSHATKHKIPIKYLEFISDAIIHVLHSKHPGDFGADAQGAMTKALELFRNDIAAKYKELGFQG

B1: recombinant malate dehydrogenase (MDH) of Bacillus subtilis with C-terminal 6x His-tag (protein)
chain: MGNTRKKVSVIGAGFTGATTAFLIAQKELADVVLVDIPQLENPTKGKALDMLEASPVQGFDAKITGTSNYEDTAGSDIVVITAGIARKPGMSRDDLVSTNEKIMRSVTQEIVKYSPDSIIVVLTNPVDAMTYAVYKESGFPKERVIGQSGVLDTARFRTFVAEELNLSVKDVTGFVLGGHGDDMVPLVRYSYAGGIPLETLIPKERIDAIVERTRKGGGEIVNLLGNGSAYYAPAASLTEMVEAILKDQRRVLPTIAYLEGEYGYEGIYLGVPTIVGGNGLEQIIELELTDYERAQLNKSVESVKNVMKVLSHHHHHH
metmyoglobin reduction activity (change in A406 with NADH): the activity of MDH was not found

B2: recombinant dihydrolipoyl dehydrogenase (DLD) without His tag (protein)
chain: MVVGDFPIETDTLVIGAGPGGYVAAIRAAQLGQKVTVVEKATLGGVCLNVGCIPSKALINAGHRYENAKHSDDMGITAENVTVDFTKVQEWKASVVNKLTGGVAGLLKGNKVDVVKGEAYFVDSNSVRVMDENSAQTYTFKNAIIATGSRPIELPNFKYSERVLNSTGALALKEIPKKLVVIGGGYIGTELGTAYANFGTELVILEGGDEILPGFEKQMSSLVTRRLKKKGNVEIHTNAMAKGVEERPDGVTVTFEVKGEEKTVDADYVLITVGRRPNTDELGLEQVGIEMTDRGIVKTDKQCRTNVPNIYAIGDIIEGPPLAHKASYEGKIAAEAIAGEPAEIDYLGIPAVVFSEPELASVGYTEAQAKEEGLDIVAAKFPFAANGRALSLNETDGFMKLITRKEDGLVIGAQIAGASASDMISELSLAIEGGMTAEDIAMTIHAHPTLGEITMEAAEVAIGSPIHIVK
metmyoglobin reduction activity (change in A406 with NADH): Both of them showed 10 times or more higher metmyoglobin reduction activity than the empty vector

B3: recombinant dihydrolipoyl dehydrogenase (DLD) with His tag (protein)
chain: MVVGDFPIETDTLVIGAGPGGYVAAIRAAQLGQKVTVVEKATLGGVCLNVGCIPSKALINAGHRYENAKHSDDMGITAENVTVDFTKVQEWKASVVNKLTGGVAGLLKGNKVDVVKGEAYFVDSNSVRVMDENSAQTYTFKNAIIATGSRPIELPNFKYSERVLNSTGALALKEIPKKLVVIGGGYIGTELGTAYANFGTELVILEGGDEILPGFEKQMSSLVTRRLKKKGNVEIHTNAMAKGVEERPDGVTVTFEVKGEEKTVDADYVLITVGRRPNTDELGLEQVGIEMTDRGIVKTDKQCRTNVPNIYAIGDIIEGPPLAHKASYEGKIAAEAIAGEPAEIDYLGIPAVVFSEPELASVGYTEAQAKEEGLDIVAAKFPFAANGRALSLNETDGFMKLITRKEDGLVIGAQIAGASASDMISELSLAIEGGMTAEDIAMTIHAHPTLGEITMEAAEVAIGSPIHIVKHHHHHH
metmyoglobin reduction activity (change in A406 with NADH): Both of them showed 10 times or more higher metmyoglobin reduction activity than the empty vector

B4: recombinant putative NAD(P)H nitroreductase (yodC) of Bacillus subtilis with C-terminal 6x His-tag (protein)
chain: MTNTLDVLKARASVKEYDTNAPISKEELTELLDLATKAPSAWNLQHWHFTVFHSDESKAELLPVAYNQKQIVESSAVVAILGDLKANENGEEVYAELASQGYITDEIKQTLLGQINGAYQSEQFARDSAFLNASLAAMQLMIAAKAKGYDTCAIGGFNKEQFQKQFDISERYVPVMLISIGKAVKPAHQSNRLPLSKVSTWLHHHHHH
metmyoglobin reduction activity (change in A406 with NADH): the activity of yodC was confirmed
reactivity for myoglobin (relative to DLD): In comparison with DLD, yodC showed about 2.6 times and 22 times higher reactivity for potassium ferricyanide and myoglobin, respectively
